Publication PMC5484120 (Marine Drugs, 2017)
Where no end group is shown, it is not given here. The star is where a group is joined. Cam = NC(=O)C*

Assays:
[1] = biological target: human α9α10 nicotinic acetylcholine receptor (human) (UniProt Q9UGM1)
[2] = biological target: rodent α1β1εδ nicotinic acetylcholine receptor (rat α1, β1, δ; mouse ε) (rat | mouse) (UniProt P25108)
[3] = biological target: O-conotoxin GeXXVIIA, native form (disulfide-linked homodimer) (Conus generalis); assay: mass spectrometry before and after reduction with DTT
[4] = tested on: rat models of neuropathic pain; conditions: in vivo; cited from earlier work
α9α10 nAChR = conditions: cited from earlier work
N-type Ca^2+ channel = conditions: cited from earlier work

Molecule: GeXXVIIA-L-Nter (N-terminal fragment of GeXXVIIA-L after Asp-N digestion) (peptide)
- IC50 of inhibition of ACh-evoked current of the receptor in Xenopus oocytes [1]: 222 nM
- IC50 of inhibition of ACh-evoked current of the receptor in Xenopus oocytes [2]: 2.19 µM

Molecule: O-conotoxin GeXXVIIA, native form (disulfide-linked homodimer) (peptide)
- stoichiometry N [3]: 2

Molecule: Vc1.1
- pain relief in rat models of neuropathic pain [4]: long lasting relief in rat models of neuropathic pain
- IC50 (α9α10 nAChR): 19 nM

Molecule: ω-conotoxin MVIIA
- N-type Ca2+ channel inhibition (in words) (N-type Ca^2+ channel): selective N-type Ca^2+ channel inhibitor

B1: GeXXVIIA-L (disulfide-free linear peptide of GeXXVIIA, Cys residues alkylated with iodoacetamide) (peptide)
chain: ALMSTGTNYRLLKTC(Cam)RGSGRYC(Cam)RSPYDC(Cam)RRRYC(Cam)RRISDAC(Cam)V
- IC50 of inhibition of ACh-evoked current of the receptor in Xenopus oocytes [2]: 0.774 µM
